Six sequences from the supplement of paper PMC12455559 can be followed below.

Series [1] is described as follows: melting temperature (DSF); higher = more thermostable. The gist of the method:
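On a Bio-Rad CFX96, fluorescence of 45 μL enzyme (0 to 0.3 mg/mL) mixed with 5 μL 5X Sypro Orange in sealed PCR plates was followed from 25 °C through 250 cycles of 0.3 °C, with a 0.3 °C/s ramp. The enzymes had been expressed in E. coli C41(DE3), taken up on nickel beads and released by SUMO protease. Melting temperature, measured by differential scanning fluorimetry, is the value given.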

Series [2] can be described thus: PET hydrolysis, aromatic products released after 48 h (umol product/mg enzyme); higher = more PET depolymerization activity. The method, boiled down: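 Tagless, SUMO-cleaved candidate enzymes were purified on nickel beads, and 5 μg (50 μL) was added to 3.5 mg amorphous PET film or crystalline PET powder in 450 μL buffer. Buffers were 50 mM NaCitrate (pH 4.5, 5.5), 50 mM NaPhosphate (pH 6.5, 7.5) or glycine (pH 8.5). Sealed plates were incubated 48 h at 40 or 60 °C without shaking. PET hydrolysis activity is the aromatic product in the supernatant, read by absorbance at 260 and 280 nm against buffer blanks and expressed per mg enzyme.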

The nature of series [3]: purified protein yield per well (BCA); higher = higher soluble expression. The method, boiled down:
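Purified protein yield per well is reported, as measured by the Pierce Rapid Gold BCA kit. The enzymes came from E. coli C41(DE3) autoinduction cultures of 2 mL with 100 µg/mL kanamycin, held at 37 °C for 2 h and 18 °C for 40 h, then lysed and purified on Ni-charged magnetic beads with SUMO protease release. The detection threshold is 25 ug (0.1 mg/mL), and lower values are under it.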

Setting [4] is: substrate: cryPow, 40 °C, pH 5.5.
Where [5] appears, read: substrate: cryPow, 40 °C, pH 6.5.
Where [6] appears, read: substrate: cryPow, 40 °C, pH 7.5.
Where [7] appears, read: substrate: cryPow, 40 °C, pH 8.5.
The mark [8] stands for this setting: substrate: cryPow, 60 °C, pH 5.5.
The mark [9] stands for this setting: substrate: cryPow, 60 °C, pH 6.5.
The mark [10] stands for this setting: substrate: cryPow, 60 °C, pH 7.5.
Setting [11] is: substrate: cryPow, 60 °C, pH 8.5.
Setting [12] is: substrate: aFilm, 40 °C, pH 4.5.
[13] abbreviates: substrate: aFilm, 40 °C, pH 5.5.
Where [14] appears, read: substrate: aFilm, 40 °C, pH 6.5.
Setting [15] is: substrate: aFilm, 40 °C, pH 7.5.
Setting [16] is: substrate: aFilm, 60 °C, pH 4.5.
The mark [17] stands for this setting: substrate: aFilm, 60 °C, pH 5.5.
Where [18] appears, read: substrate: aFilm, 60 °C, pH 6.5.
Where [19] appears, read: substrate: aFilm, 60 °C, pH 7.5.
Where [20] appears, read: substrate: cryPow, 40 °C, pH 4.5.
Setting [21] is: substrate: cryPow, 60 °C, pH 4.5.

± gives the standard deviation of the averaged measurements.

“QTNPFQRGPAPTEATLEATRGPMATSQFTVSRPSGYRAGTVYYPTNAGGTVGGIVVVPGYTAYQSDINWWGPRLASWGFIVMTIDTNSTLDQPASRSRQQLAALDQLATLSRTSSSPIYNKLDTNRMGVMGWSMGGGGSLISTENRPSLKASIPFAPWNSTENFSSVTVPTLIIACQDDSIAPVYSHASPFYNSMTRNPKQFLEVRGEGHYCANSSNSDKDFLGKKGVAWMKRFMDNDTRFTTFACTNQESSLDVSDFRTARCS [DP032]”: in series [1], the melting temperature is 44.5 C. For the same sequence, the PET hydrolysis in series [2] (setting [4]), in series [2] (setting [5]), in series [2] (setting [6]) and in series [2] (setting [7]) was less than 3 throughout. For the same sequence, in series [3], the “purified protein yield per well” value came to 38 µg.
As to “QTNPYQKGPAPTVANLEAARGSFAVSSTSISSLSATGFGGGSLHYPTAAGTYGLIAVAPPYLAQSSSIAWLGPRLASHGFVVVMIDVNSTLDFPESRSRQQLAAIDYAIAQNARRTSPIYGKVDTTRRGVTGHSMGGGASILTARNSPANIKGAFPLTPWSSDKNFSNLQVPTGYLACQDDTVAGNADHSLNFYNRMPASTPKGYYELRGETHFCPQSTTNNPVIGKYLVAWMKRFVDNDTRFSPFLSGALPNADLSSGRFSVLRTSGL [DP075]”, the melting temperature in series [1] was 49.3 C. The PET hydrolysis in series [2] (setting [4]), in series [2] (setting [5]), in series [2] (setting [6]) and in series [2] (setting [7]) was less than 3 in each case. Further, the “purified protein yield per well” value in series [3] amounted to 33 µg.
In turn, “QYQKGPDPTTSSLERAGSFATRTISVSSLAASGFGGGRIYYPTASGSYGVIAVSPGYTGTASTMYFWGERLSSHGFVVIVIETNTLLDQPGSRANQLMAALNYTVSQGNSRTSALYGKVDGNRRGVAGHSMGGGGTLIAAADNASLKAAVPMAPWNLSSLSFRGIRVPTMIFGCQSDAIAPVNTHAVPFYNAIPSSTKKGYVEMRLDDHFCVMNGGGHYETLGKLGISWFKRFIDEDTRYSKFLCGTEYNATVRSTEVSDSKNNCPY [DP039]” displayed a melting temperature in series [1] of 47.8 C. For the same sequence, the PET hydrolysis in series [2] (setting [4]) is less than 3; in series [2] (setting [5]) it was 3; in series [2] (setting [6]), 4; in series [2] (setting [7]), 3; in series [2] (setting [8]) it was less than 3; in series [2] (setting [9]), less than 3. The PET hydrolysis in series [2] (setting [10]) and in series [2] (setting [11]) was less than 3 in each case. Moreover, the “purified protein yield per well” value in series [3] amounted to 57 µg.
Turning to “QYQKGPDPTVAGLERDGTFAIRTTTVSRLSASGFGGGTIYYPTATGSYGVVAVSPGFTAYQSSISWIGSRLASHGFVVITIDTNTTSDQPDSRARQLKAALDKVVSLASSRTNVLYGKVDSSRLAVAGHSMGGGGSLAAARDYPSLKASVPLAPWHTTKSFSTVRVPTLIVGADGDTVASVTSHSIPFYTSIPSSTPKGYLELNNEDHFFPQDSGEYGLVGKYMISWFKRFVDSDTRYSPFLCGAPHQTQIANTLRVSDSRTNCPY [DP038]”, the melting temperature in series [1] came to 56.2 C. Also, the PET hydrolysis was 6 in series [2] (setting [4]); 55 in series [2] (setting [5]); 59 in series [2] (setting [6]); 54 in series [2] (setting [7]); less than 3 in series [2] (setting [8]); less than 3 in series [2] (setting [9]). In addition, the PET hydrolysis in series [2] (setting [10]) and in series [2] (setting [11]) was less than 3 each time. Besides, in series [3], the “purified protein yield per well” value turned out to be 54 µg.
In series [1], “QYQKGPDPTVSALERTGSFATRTTTVSRTSASGFGGGTIYYPTASGSYGAIAISPGFTAYQSSISWMGTRLASHGFVVITIDTITTSDQPDSRGRQLKAALDKVVSLSRSSSSPIYNKVDTTRLAVAGHSMGGGGTLAAARDYPSLKAAVPLAPWHTTKSWSRVTVPTLIIGGSTDTIASVGLHSIPFYTSLPSSTNKAYMELSGEGHFFPQTSSNYPLVGRYMISWFKRFVDGDSRYSPFLCGAQHQADLGLFSDISDYRENCPY [ESM169]” showed a melting temperature of 61.3 C. Further, the PET hydrolysis was less than 3 in series [2] (setting [12]); 6 ± 1.4 in series [2] (setting [13]); 10.5 ± 0.71 in series [2] (setting [14]); 18.5 ± 0.71 in series [2] (setting [15]); less than 3 in series [2] (setting [16]); less than 3 in series [2] (setting [17]). Also, the PET hydrolysis in series [2] (setting [18]) is 6.5 ± 0.71; in series [2] (setting [19]), 6 ± 1.4; in series [2] (setting [20]), less than 3; in series [2] (setting [4]) it was 15 ± 2.8; in series [2] (setting [5]), 32.5 ± 0.71; in series [2] (setting [6]), 57 ± 11. Further, the PET hydrolysis in series [2] (setting [21]) was less than 3; in series [2] (setting [8]), 9; in series [2] (setting [9]), 24.5 ± 2.1; in series [2] (setting [10]), 29 ± 1.4. In addition, the “purified protein yield per well” value in series [3] came out at 219 µg.
In series [1], “RPAAPADSPYQRGPDPTVSSVAAQRGTFATAELTVPPGNGFNGGKIYYPTDTSQGTWAAVAAVPGYTAKWAAEGAWMGPWLASFGFVVIGIDTNSPNDYDTARGTQLLAALDYLTQRSPVRDRVDPGRLGVIGHSMGGGGAINAAERRPSLKAALPLAPFSPSQNLSTLRVPTMIMGARDDGTVTPSYLNGLYGGMPATTPSAYIELTSGGHGFPTWGNSNVTRRTIPWLKIFLDEDTRYTQFLCPSLPDRTGISRSQVTCGSVPGDGTTPPPATGRQVVGAASGRCLDVPGSSQANGTQLQLWDCLDQAGQKWARTDAGELRVLGGKCLDAEASGTAPGTRAVVWDCHGGTNQRWNVTPDGTITSAQSGLCLDAYNAGTANGTRTVLWTCNGGSNQRWTWR [TEP102]” had a melting temperature of 60.4 C. For the same sequence, the PET hydrolysis in series [2] (setting [12]), in series [2] (setting [13]), in series [2] (setting [14]), in series [2] (setting [15]), in series [2] (setting [16]) and in series [2] (setting [17]) was less than 3 each time. In addition, the PET hydrolysis in series [2] (setting [18]) is less than 3; in series [2] (setting [19]), less than 3; in series [2] (setting [20]), 5.5 ± 0.71; in series [2] (setting [4]), 13 ± 2.8; in series [2] (setting [5]), 25.5 ± 0.71; in series [2] (setting [6]), 26 ± 1.4. In addition, the PET hydrolysis in series [2] (setting [21]), in series [2] (setting [8]), in series [2] (setting [9]) and in series [2] (setting [10]) was less than 3 in each case. Moreover, in series [3], the “purified protein yield per well” value was 252 µg.
